B1: 2K2A (parent)
chain: ELREAFRLYDKEGNGYISTDVMREILAELDETLSSEDLDAMIDEIDADGSGTVDFEEFMGVMT

Variants of: B1
Assay: folding stability dG (cDNA display proteolysis); higher = more stable
Settings: PBS, room temperature

Folding stability dG [kcal/mol] of substitutions, site by site:
G15: K 0.271, F 0.687, A 0.588, M 0.662, D 0.537, R 0.333, N 0.741, V 0.459, H 0.458, I 0.513, S 0.464, C 1.1, Y 0.571, T 0.259, W 0.821, L 0.841, P 0.347, E 0.488, Q 0.45
S18: I 0.865, K 1.24, Q 1.01, L 1.41, T 2.02, N 1.16, M 1.25, R 1.59, V 0.765, D 0.936, H 1.54, E 0.834, C 1.29, G 1.52, A 1.42, P 1.58, W 0.742, Y 1.32, F 1.15
M22: D -0.77, T 0.155, I 1.46, Y 0.295, H -0.985, V 1.4, L 1.97, F 1.65, A 0.924, C 0.958, W 0.847
E31: D 1.97, L 2, P 2.61, H 2.26, C 1.92, S 2.28, F 1.89, G 2.17, K 2.34, N 2.15, M 2.02, I 1.93, R 2.41, Q 2.2, A 2.24
I25: Y 0.879, C 0.786, A 0.872, W 0.943, F 1.53, R 0, L 1.82, H -0.033, Q -0.758, K 0.177, T -0.61, M 1.31, V 1.31
R23: I 0.365, Q -0.482, V -0.067, A 0.182, S -0.561, Y 0.595, K 1.69, W 0.731, M 0.457, F 0.124, C 0.094, H -0.034, L 0.522, G -0.378, T -0.478
E24: I 2.29, L 2.55, R 2.58, A 2.35, K 2.6, C 2.6, T 2.22, G 2.08, H 2.14, M 2.52, D 1.77, P -0.167, W 2.31, S 2.3, Y 2.2, V 2.23, N 2.19, F 2.32, Q 2.48
T19: Q 0.688, L 2.27, Y 2.03, V 2.04, K 1.67, R 1.86, A 1.32, S 1.23, P 0.762, E 0.025, I 2.29, H 1.01, M 1.91, G 0.526, N 1.73, D 0.211, F 2.18, W 1.4, C 1.39
Y16: C 0.627, A 0.729, R 1.15, V 1.1, I 0.893, T 1.05, F 1.89, L 0.96, K 1.19, Q 1.03, D -0.18, N 0.623, E 0.315, M 0.8, W 2.34, G -0.095, H 1.21, P -0.96, S 1.03
E12: I 1.1, Y 1.2, T 1.32, M 1.53, H 1.41, R 0.846, S 1.34, Q 1.56, L 1.55, V 1.19, P 0.544, K 1.13, W 1.48, G 1.16, N 1.52
V21: Y 1.61, C 2, S 1.94, N 1.74, L 2.19, W 1.09, A 2.17, R 1.88, I 2.02, H 1.77, F 1.41, Q 2.36, E 1.56, D 1.95, M 2.06, G 0.967, T 1.92, K 2.04
A27: G 1.47, L 2.06, E 1.12, P -0.602, M 2.03, F 1.73, V 1.59, Y 1.75, R 2.25, W 1.73, S 1.87, K 2.21, T 1.6, D 0.222, Q 1.93, N 1.24, H 1.94, C 1.47, I 1.87
D30: E 0.964, L 1.93, Q 1.38, K 1.45, T 1.3, N 2.1, V 1.55, A 1.28, M 1.95, I 1.81, R 1.72, F 2.19, H 2.08, C 1.97, W 2.22, P 0.553, S 1.4, G 1.13, Y 2.36
L26: M 1.27, A 0.083, I 1.45, Y 0.295, F 1.04, V 0.555, W 0.837, R -0.879, C 0.479
N14: P -0.347, V 2.07, H 1.63, R 2.11, M 1.78, Q 1.53, S 1.5, F 1.7, T 1.74, E 0.908, G 0.728, L 2.17, W 1.38, A 1.55, D 1.3, K 2.09, C 1.43, Y 1.6, I 1.73
E28: H 2.2, Q 2.24, F 1.77, Y 1.83, K 2.52, V 1.76, P -0.155, W 1.89, D 1.78, M 2.28, A 2.46, C 2.33, S 2.34, T 2.03, G 2.28, L 2.25, R 2.59, N 2.22, I 1.85
D20: F 1.89, S 2.26, T 2.25, Y 1.66, Q 2.33, V 2.14, G 1.89, C 1.9, H 2.05, L 2.35, P 1.15, E 2.16, W 1.99, N 2.04, M 2.25, R 2.23, K 2.4, I 2.03, A 2.28
L29: T 1.15, C 2.18, V 1.28, E 0.559, R 2.12, N 1.34, G 0.955, F 1.91, M 2.15, D 0.372, Q 1.49, I 1.64, W 2.15, H 1.73, Y 1.92, K 1.52, S 1.32, A 1.52
I17: L 1.36, Y -0.493, T -0.998, F 0.818, K -0.854, R -0.847, S -0.963, W 0.006, C 0.277, V 1.22, M 0.435
G13: L 1.11, P -0.146, K 1.14, A 1.05, Y 0.607, C 1.5, M 1.23, V 0.792, R 1.01, E 1.1, H 1.15, D 1.41, S 1.18, N 1.74, W 0.579, Q 1.26, F 0.932, I 0.538, T 0.448
